Literature values as cited in publication PMC5683942.

Legend:
[1] = biological target: Histone H4 K5buK8bu (Homo sapiens) (UniProt P62805)
[2] = biological target: Histone H4 K12ac (Homo sapiens) (UniProt P62805)
[3] = biological target: Histone H3 K14ac (Homo sapiens) (UniProt P68431)
[4] = biological target: Histone H4 K5ac (Homo sapiens) (UniProt P62805)
[5] = biological target: Histone H2A K5ac (Homo sapiens) (UniProt P0C0S8)
[6] = biological target: Histone H4 K8ac (Homo sapiens) (UniProt P62805)

BRD9 bromodomain (from UniProt Q9H8M2)
Kd [1]: 60 µM

BRPF1 bromodomain (from UniProt P55201)
Kd [2]: 86.5 µM
Kd [3]: 626 µM
Kd [4]: 1240 µM
Kd [5]: 48.5 µM
Kd [6]: 697 µM
